Reference: publication doi:10.1101/2024.03.07.583918

Target: CheR of Pectobacterium atrosepticum SCRI1043 (Pectobacterium atrosepticum SCRI1043)
Assay: ITC

Q: With DWTSF [DWTSF pentapeptide] as the binder, how does the Kd read?
A: 360 nM

Q: NWETF [NWETF pentapeptide] was tested. Which Kd did it give?
A: 480 nM

Q: For DWTTF [GWTTF pentapeptide with substitution of G by D at position 1], which fold decrease in affinity against GWTTF is on record?
A: 2.6 fold

Q: For GWTTF [GWTTF pentapeptide], which Kd is on record?
A: 90 nM

Q: Which Kd does the source give for GWEKF [GWEKF pentapeptide] here?
A: 200 nM

Q: Which Kd does the source give for NWTTF [NWTTF pentapeptide] here?
A: 1000 nM

Q: How did the Kd turn out when GWQRF [GWQRF pentapeptide] was run?
A: 540 nM
